The NTF2 design screens of Basanta et al. (2020)

Assay: protease stability score; higher = more stable; yeast display proteolysis, trypsin and chymotrypsin;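 also: log10 excess protease needed over predicted unfolded state with 0 meaning unfolded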

## EEDVVEQLKDWYRAVNSGDEERLTQLMDPNAKAEVGDKRVHGMDEYARQQRTRNEKLRFQINSIEIRAKGNHVSVNVDANYHFDGQPRRDTWHIRMQFHNGRLKTLSVTMDPTLLREMEK
  protease stability score: 0.931

## EEEAAHQFNKWLSLMKHGNEHKASEMLDKDAHIKVGDKTLQGREDVQRDVRRRKEELKFSMTIVDYKDHGDKARLTVEQTNDHNGRPRTRRANVTVHVSNGRVKEIVINDDS
  protease stability score: -0.265

## EEEAFDRAQQFVRAMETGDTTKLEQLADKDVRFDVGDKEVQGREEYSKTVHELKKEMRFRYEFKHYTVTGDEVDARVEFEYEHNGQPRRTQAKVTFIFQGDKLESINMKESQ
  protease stability score: 0.146

## EEEAHTHAEQWFRVLQTGDEERAMKMVDKNAQLQIGDKDIHGREDVRKYVHDRKNEQDVEIKRYSIEVSGNSFNVKIHVRMEHNGQPRTDVLDMKFEVSNGRLTKVSVQSNG
  protease stability score: 0.021

## EEEANKHLRQWWRNFRKGSEEKMKNLMDPNVRVVVGDKVYSGREQVMKMVRDQLTHARFDFDLERLSAHNGKIDITMKLVADINGKPVKVHVKADVQYSNGRIESIVLHVDPDQQRKLTE
  protease stability score: 2.19

## EEEANRNVRKFEQALRHNDPHTLLELVDPNADLQIGNERIKGMHHAAKHLIDWMEEIRVQIRRVTFITRPNHAQLKRKVQAEVNGQPFEYTVEVVFNFHNGRVTEVHMRMDEDKQRKLRS
  protease stability score: 0.12

## EEEAREAVKRVMKAHETNDPDKMMQNFDPNAKLTIGDTELHGREEARKHWEDNLKEIEIRIETWHVEDEGDKATLKVVYVREHNGQPTRERAVVYLRVKNGKVQTVSNQSRK
  protease stability score: 0.292

## EEEAVRRYERMLRLVQNNNTEELNKQLDPNVEYDYGNHEIHGREQAVREMLKLQRKMRIEIQFDRVRHEGDKAVVKYTVLFDINGRPITNSATLYVKFKNGKIVYASAQMPEDFQRKVSS
  protease stability score: 0.876

## EEEDAKRFKHLNERNDFTSLAKQVDEDATLRVGDKEIHGRERVTEFLEKAERAIDHVDIDSVDWSGDHVQFDAKYQVNGTTHHVIVRFRIHNGRIKYMQWDFTDDEVARRFLDNVQ
  protease stability score: 0.573

## EEEDEKRIKSLLEHNDFTRFAELVDKDAHAVIGDKTIHGREEIKKEIEEFKKRIDHLEWKRVDVRNGKVSARMQVTINGRTLDVYMRADVENGHIHYVEIHARTEEAQRVLDEVLS
  protease stability score: 1.58

## EEEDLKQVRKFLDAERDNDEDRLRELVDPNARFKVGDKTYHGMEDYVREVVHRMRQMQFEVDSIDNTVEGDHVRMRIHRTYRHNGKPSTKVYVLKARLHNGKIKHMQQDDDK
  protease stability score: 0.152

## EEEDTKLMKQYADAVNNNNPDELRRQADENVRFEVGDNVFHGRKEYIKDVERKLRNIRITMNVKSLTVEGDKVNVTFEERHNKNGKPETFTAKARAHFHNGRIHSIRYEKDG
  protease stability score: 0.049

## EEEDVETAKQFIEAEEKGDEDRLVELADPNARFNVGDKNLHGREHAAREMRKHQEEADLRLEDVRLDVHNGRVDIELVFTHRHNGQPTRQKVKLTFEQHNGQLTHVQNDETK
  protease stability score: 0.558

## EEEDVKRVEEDLHNGDPDRLRDLMDKDVSVEYGDKTVNGRENAAEIWEHIRRNVDRIRIVSMHVKNGKINFDLTAEVNGTKFQIRVVWELRNGRAKSVKIEVTDEEVKKLLDRLLQ
  protease stability score: 2.04

## EEEDVRKAKKFIQLLNSNDQENLKTLADPNATFRYGDKHIHGMDRVNQYLDRVDHTMKRDIEVTSMSAQGDHVRIHAIMRFKVNGNPDQIDIIIVVVVENGRIKEVQIRMPEEDKRRVDR
  protease stability score: 0.416

## EEEHAKHLNEVMERGDWERLAELADKDVKIRVGDKEYRGRELLERWNRKLYKKVDEVHIDSVHVRNGRITVNMEVNVNGDKVRAQFRIRIHNGKIKHINIQATSEENEERWQEMLD
  protease stability score: 1.5

## EEEKKNRAHQFLKAVERGDPEELRKQFDPNAHARVGDKRYHGMEEWAKDVMRRVRELRMSIKRLSVDVQGNDVKVNMNLVINRNGKPKEFREVWYFKIHNGHFVELHVQEEP
  protease stability score: 0.477

## EEEKLEKMVKDVFEAVQKGNMEELKQYLKEDVRFQFGDNRYQGVDQYVKLMKTMTEQGVQFEFKKFQMKDNTVTMETEAKYADHEVRVKAEARYEGGRLDEARVELTEEAKEIYKKG
  protease stability score: 1.17

## EEEKLKKVAEEVFRMVQNGNYDQLAKLGKDNAEFQFADHRLKGKEQYKKYLEELVKRGVQFEVKKAQLKDNTVTMVTKAKYADTEATVTVQAKYEGGKLDRARVKLSEEVKKVLKKG
  protease stability score: 0.065

## EEEKLQKVAKEMFDAVQKGNVDKLKKLGKEDVEFQFVDHRVKGADHYLQIMKKQLDHGVQFEIKQAQVKDNTVTMTTQVQYGDKTVRVEAKAEYDGGRLQRAEVKLTEEAKEAQKKG
  protease stability score: -0.026

## EEEKLQKVMEKMFRAVQNGNVEQLKKLGKEDVQFQFVDKRVQGAETYAQEMEKTHRQGNQFEIKEAQVKDDKVTMRTVVDYGDQRITVKAEAQYDGGRLDNARVELTEEYREVLKKG
  protease stability score: -0.214

## EEEKMEKLMKQLFDAVQKGDVDKFVKYLKEDVEFQFGDNRIKGVEEYKRTMEEMHKKGVQFEIKEAQNKDDTVKMRTVVHYGNQTFEVTAEATYDGGVLDKARVEVSEEAKEAFKKG
  protease stability score: 0.992

## EEEKMKKIIKRMFDAVQKGNTEELRKYGKEDVKFEFIDDRNEGPQQYAERMKKMMKHGVQLEIKEVQLKDNTATMYTVVEYGNRRVTAKAEFEYDGGKLKEARVKISEEAKKVIKTG
  protease stability score: 0.119

## EEEKVKKVVKKLFEAVQKGDKKKLQELLHEDVEFQFGVKRVKGAEQYMRTVDELRQRGVQIEVKKYQVKDDKARMVTVVRYGDKTVTMTAEAEYEGGVLKRARVELTDEAKELVKKG
  protease stability score: 0.41

## EEEKYQKLAKKVFEAVDKGNYEEVVKLGDENGKFQFGDNRVEGLEQYKRLMEKFEKKGVQVRVRKAQNKDDTATMVTTVKYGDVENTVTAELKYEGGKLKEARVENDEEVKEAVKKG
  protease stability score: 0.031

## EEELADLLRRFLENVKDNDENQLKRNLDPNVRVLVGDKTLHGREDVARWLTKHQREQRVEYRIKEYEIHGNHFNATMQAQNTNNGKPRTFEAVIRVQFRNGRFQVIQIEDKQ
  protease stability score: 1.39

## EEELAKRIRDFLHWVEKGNDDRAMELADPNARVDIGDRDIHGRESIREWVKKMQDKQRVEFDVKHVTVRGNTVVVDLVMRVEHNGQPSETKYQFEAKDNNGHLKFIKVTTIS
  protease stability score: 1.3

## EEELAKSYVELLKQLSEGNEENLKELMDPNARIEVGDKELHGREDIVNTWSKEAREIRIHYEIKHIEQEPGRVTIHARVEVQHDGQPSSKDFNVVFTAKNGRLTKMTVQDDG
  protease stability score: 0.767

## EEELEEQLHRLLQLIREGNEHKVKEQMDPNVKVVYGDKEYKGRDEVETYLEEVINHWRVNFRVKHITVKGDKVDMKAEASYTHNGRPVNRKLTINAEIHNGRFKTLEFKWDG
  protease stability score: 0.214

## EEELEKEAEKFFRIVHDGNEDDLKRYMDPNVDITVGDKSLTGHSHYARRVKQKKRELRVDIKIESIKADGNRVSATVVWVNNHNGEPQSDAAEVEFNFHNGRVTHIRNDDDK
  protease stability score: 0.151

## EEELERRVEDQFKDWNTGDPDRDREMFDKDATVRVGDKKIKGSSQFRDELEKRRREMEFHVEVKDIQDEPGRVNVTFKFRTNHNGQPKEDTMRFHMTWHNGRIKHMSIHHDG
  protease stability score: 0.641

## EEELFEQWQKIIENQEHGNEDRLQDQFDPNARIDVGDKRIRGRENLAKDQQDKLDNIRFDFQIDHVQDRPGKIVIKYHEVNNHNGKPRSDTVVVHIQAHNGKIQRIDVQKDK
  protease stability score: -0.065

## EEELKKVWTEMQDALENGNEEKIEENFDPNAHFQIGDTHIHGMHEWAHQQFREMKDIRVQVEIESVTFSGDKVNVEYSFTLEIDGRPQSNTATMSARVHNGHFKSVSIRIDPKELKDRQK
  protease stability score: 0.601

## EEELLERIKTFVKVYEHGDFKRLHRNLDKDVRVVVGDKHVRGREEAVRDMSEELRNMDQKIDFKTMHITNGKANLDFHFQNTVNGQPRRDRAHLIIRLHNGKFQEIKIQFSEEQERRQKG
  protease stability score: 0.608

## EEELLQRATEFLHAQETNDPKRLKEQADPNARFRVGDKTIHGMDEYVRQLEQTEREMKVSLEIKHVTLTGDKADVEAEVTKDRNGRPDRFRVRYEFEARNGKFVDVRIQEDR
  protease stability score: 0.336

## EEELNKVFEDLLEAEKTGDPDKIMRYFDPNARVSYGDKHIHGREEIRKDADRRKEHMRRDIHDYRIDARGDKVRFTADFTQTHNGQPRRHRMRMEVRVKGDKFRHFRIDEDG
  protease stability score: 0.083

## EEELQKKASEFIRLQQKGDSEEVMKNVDPNARINVGDKVYDGREQLAKDLHRSKRESRMHFDLKSISVENGKVDVRARMHVVENGQPRRFRVRIIFHQENGRITHFQYHTDD
  protease stability score: 0.258

## EEELRHTAHELQKAYEENDPEKILENLDPNAQVQIGDRRVHGRHEIRKLMEHFERQARVRVHDVKVDVHGNKINIQVDAEQNHNGEPRSFTVQAEMTMHNGRVKSIDMKIQG
  protease stability score: 0.612

## EEELRNVYRDLLEAEERGNPDDIKRLVDPNARLQIGDKEIHGREHLMRFVEEVRKEIRFEIDRLDVTATGETAKVDARVKQNHNGQPESWHYTVQVKYHNGRIVNLRMRRTS
  protease stability score: 1.31

## EEELVKKAKTFMKQEEDGNPEKLKEYADENVRMHVGNKEVRGMDQYAEDVRRKREEARFSFKSIDAKASGDKITVRATLTFNVNGKPVEIDMTIILKLHNGRLKFLKVRVDPDEERRLES
  protease stability score: 0.595

## EEELVKRLKELFEAYQTGDEHQLKDLMDPNVRANIGDKTFHGREKLITHIKRYLDELDFQLKSVTFRLSGDHAVVTFEIEVDVNGVPRSFRFRFHIKMSNGKVTEIEIQFDPERQKKLES
  protease stability score: 1.38

## EEEMVKHIKRVLENNDEERRAQLADKDAHARVGDRHVHGREELEKIVHHIKRRVDHLEVKDVKADGNTIEADVVMQVDGRTMQYNLTIILHNGTIKSVTIKVRNEEQKKLMEELFG
  protease stability score: 0.317

## EEENFNRANEFMKAVETNDPDKLKHNADENVQITYGDKSYQGRESWAKDLQRKLKHMRWRYEFKSYHDTGDSVDVSLRVMATVNGKPRDFHLRMIIHFKNGKIKNIELRLDPDELDKLES
  protease stability score: 0.648

## EEENQKLAKKFITAVNKGNPKELNENVDPNARLVIGDKTIHGRETLDRWAKKVKDDMRNHWHVTSLRVSNGDIKADVKVVINHNGKPDDFTLDMTMEVHNGKIKRMDARDSQ
  protease stability score: 0.157

## EEENQQIAEDVVDVLRTGDHEKFMHMADPNVKVVIGDKQYRGREDFSKIVKTWKDQMRLHIQIKDVKVEGDEVHVEADYLMKHNGKPVRDTITLVIRFDNGKIKEVQYEVDEDVLRKLES
  protease stability score: 1.14

## EEENSKLMEEIVKAISNGNPDRVRENMDPNARARYGDKRIHGMENILTQIERRWRQIRIQVDDVKLSVENGTINVDIQQRNDNNGQPDNFRLEASASVENGKVKEMNVVKRP
  protease stability score: 0.014

## EEENVKLVERFLKAVLEGDEDQLRRLMDPNARVRVGDKVLTGRDRVAEHFKERSQQWQFHIDVKHVSVNGDHIIMHFQFSMTVNGQPRSATMTAVFRVHNGRIQQVEFRLPEEDQKTIRG
  protease stability score: 0.811

## EEENVKVAQEIINIEDRGDSDQIHRLFDPNAHWTVGDQDIHGRETWLTKFRKEREEMRVRFRTLHFNAHNGRAVVRVEQEVTHNGTPTTKVYIMKVEFRNGKVKSIVFQSDG
  protease stability score: 0.235

## EEEQITKLEEVLKDVETGDPNKLIDNFDPNVRYDYGDKKYHGMTNWAKDVVSKAKEQHVTRHVTDVKVQGNHASMTADVNNDHNGRPHKQKQDIQFTFHNGKIKNVHVQETK
  protease stability score: -0.667

## EEEQLHNVVRALNQNDFDKFRKLIDPNARVVVGDKSWHGREDLSNYIKQLQDHVDHRTVKDVKWHNGKIHADVEQTVNGKKMRFVFQAVVKGDKVKELNMKFRDERVETLMRKVLR
  protease stability score: 0.14
